Here are results for 70 variants from the Human Domainome abundance scans (Beltran et al. 2025).

± gives the uncertainty stated by the source.

The labels stand for the following.
B1: Gamma-crystallin S, residues 96 to 176; numbered along this chain, P22914 (parent)
chain: IQIFEKGDFSGQMYETTEDCPSIMEQFHMREIHSCKVLEGVWIFYELPNYRGRQYLLDKKEYRKPIDWGAASPAVQSFRRI
B2: Chromodomain-helicase-DNA-binding protein 5, residues 411 to 463; numbered along this chain, Q8TDI0 (parent)
chain: EEDDHMEFCRVCKDGGELLCCDACPSSYHLHCLNPPLPEIPNGEWLCPRCTCP

The first data set covers variants of B1. Description: abundance fitness (aPCA) (normalised: wild type 0, dead -1); higher = more abundant; growth selection in yeast, the domain comes from the species named. The note with it: Homo sapiens.
In the case of IQFFEKGDFSGQMYETTEDCPSIMEQFHMREIHSCKVLEGVWIFYELPNYRGRQYLLDKKEYRKPIDWGAASPAVQSFRRI, the abundance fitness worked out at 0.031 ± 0.11.
Consider IQLFEKGDFSGQMYETTEDCPSIMEQFHMREIHSCKVLEGVWIFYELPNYRGRQYLLDKKEYRKPIDWGAASPAVQSFRRI, for which the abundance fitness was -0.02 ± 0.053.
Still for that read-out and setting: next, IQDFEKGDFSGQMYETTEDCPSIMEQFHMREIHSCKVLEGVWIFYELPNYRGRQYLLDKKEYRKPIDWGAASPAVQSFRRI: -0.705 ± 0.38; IQSFEKGDFSGQMYETTEDCPSIMEQFHMREIHSCKVLEGVWIFYELPNYRGRQYLLDKKEYRKPIDWGAASPAVQSFRRI: -0.931 ± 0.13; IQQFEKGDFSGQMYETTEDCPSIMEQFHMREIHSCKVLEGVWIFYELPNYRGRQYLLDKKEYRKPIDWGAASPAVQSFRRI: -1.08 ± 0.23.
The same measure, in the same setting: next, IQEFEKGDFSGQMYETTEDCPSIMEQFHMREIHSCKVLEGVWIFYELPNYRGRQYLLDKKEYRKPIDWGAASPAVQSFRRI: -1 ± 0.22; IQNFEKGDFSGQMYETTEDCPSIMEQFHMREIHSCKVLEGVWIFYELPNYRGRQYLLDKKEYRKPIDWGAASPAVQSFRRI: -0.627 ± 0.14.
The same measure, in the same setting: as for IQAFEKGDFSGQMYETTEDCPSIMEQFHMREIHSCKVLEGVWIFYELPNYRGRQYLLDKKEYRKPIDWGAASPAVQSFRRI, the figure is -0.141 ± 0.061; as for IQTFEKGDFSGQMYETTEDCPSIMEQFHMREIHSCKVLEGVWIFYELPNYRGRQYLLDKKEYRKPIDWGAASPAVQSFRRI, -0.185 ± 0.053.
Take IQYFEKGDFSGQMYETTEDCPSIMEQFHMREIHSCKVLEGVWIFYELPNYRGRQYLLDKKEYRKPIDWGAASPAVQSFRRI: the abundance fitness was -0.286 ± 0.1.
For the variant IQHFEKGDFSGQMYETTEDCPSIMEQFHMREIHSCKVLEGVWIFYELPNYRGRQYLLDKKEYRKPIDWGAASPAVQSFRRI, the abundance fitness is -0.777 ± 0.26.
Consider IQKFEKGDFSGQMYETTEDCPSIMEQFHMREIHSCKVLEGVWIFYELPNYRGRQYLLDKKEYRKPIDWGAASPAVQSFRRI, for which the abundance fitness is -1.12 ± 0.24.
Consider IQWFEKGDFSGQMYETTEDCPSIMEQFHMREIHSCKVLEGVWIFYELPNYRGRQYLLDKKEYRKPIDWGAASPAVQSFRRI, for which the abundance fitness is -0.047 ± 0.056.
Regarding IQMFEKGDFSGQMYETTEDCPSIMEQFHMREIHSCKVLEGVWIFYELPNYRGRQYLLDKKEYRKPIDWGAASPAVQSFRRI, the abundance fitness is -0.018 ± 0.072.
For IQGFEKGDFSGQMYETTEDCPSIMEQFHMREIHSCKVLEGVWIFYELPNYRGRQYLLDKKEYRKPIDWGAASPAVQSFRRI, the abundance fitness was -0.716 ± 0.067.
The same measure, in the same setting: as for IQCFEKGDFSGQMYETTEDCPSIMEQFHMREIHSCKVLEGVWIFYELPNYRGRQYLLDKKEYRKPIDWGAASPAVQSFRRI, the figure is -0.029 ± 0.092; as for IQRFEKGDFSGQMYETTEDCPSIMEQFHMREIHSCKVLEGVWIFYELPNYRGRQYLLDKKEYRKPIDWGAASPAVQSFRRI, -0.703 ± 0.081; as for IQPFEKGDFSGQMYETTEDCPSIMEQFHMREIHSCKVLEGVWIFYELPNYRGRQYLLDKKEYRKPIDWGAASPAVQSFRRI, -1.2 ± 0.23.
With IQIAEKGDFSGQMYETTEDCPSIMEQFHMREIHSCKVLEGVWIFYELPNYRGRQYLLDKKEYRKPIDWGAASPAVQSFRRI, the abundance fitness is -0.275 ± 0.05.
Still for that read-out and setting: next, IPIFEKGDFSGQMYETTEDCPSIMEQFHMREIHSCKVLEGVWIFYELPNYRGRQYLLDKKEYRKPIDWGAASPAVQSFRRI: -0.876 ± 0.22.
Regarding IIIFEKGDFSGQMYETTEDCPSIMEQFHMREIHSCKVLEGVWIFYELPNYRGRQYLLDKKEYRKPIDWGAASPAVQSFRRI, the abundance fitness was found to be 0.221 ± 0.41.
Turning to IWIFEKGDFSGQMYETTEDCPSIMEQFHMREIHSCKVLEGVWIFYELPNYRGRQYLLDKKEYRKPIDWGAASPAVQSFRRI, the abundance fitness turned out to be 0.003 ± 0.068.
On to IMIFEKGDFSGQMYETTEDCPSIMEQFHMREIHSCKVLEGVWIFYELPNYRGRQYLLDKKEYRKPIDWGAASPAVQSFRRI, for which the abundance fitness was -0.077 ± 0.1.
Still for that read-out and setting: as for INIFEKGDFSGQMYETTEDCPSIMEQFHMREIHSCKVLEGVWIFYELPNYRGRQYLLDKKEYRKPIDWGAASPAVQSFRRI, the figure is 0.124 ± 0.13.
As for IGIFEKGDFSGQMYETTEDCPSIMEQFHMREIHSCKVLEGVWIFYELPNYRGRQYLLDKKEYRKPIDWGAASPAVQSFRRI, the abundance fitness turned out to be 0.035 ± 0.046.
With IYIFEKGDFSGQMYETTEDCPSIMEQFHMREIHSCKVLEGVWIFYELPNYRGRQYLLDKKEYRKPIDWGAASPAVQSFRRI, the abundance fitness was -0.099 ± 0.15.
As for ICIFEKGDFSGQMYETTEDCPSIMEQFHMREIHSCKVLEGVWIFYELPNYRGRQYLLDKKEYRKPIDWGAASPAVQSFRRI, the abundance fitness was determined as 0.027 ± 0.13.
As to IDIFEKGDFSGQMYETTEDCPSIMEQFHMREIHSCKVLEGVWIFYELPNYRGRQYLLDKKEYRKPIDWGAASPAVQSFRRI, the abundance fitness was -0.053 ± 0.084.
As for ISIFEKGDFSGQMYETTEDCPSIMEQFHMREIHSCKVLEGVWIFYELPNYRGRQYLLDKKEYRKPIDWGAASPAVQSFRRI, the abundance fitness turned out to be 0.039 ± 0.075.
For the variant IAIFEKGDFSGQMYETTEDCPSIMEQFHMREIHSCKVLEGVWIFYELPNYRGRQYLLDKKEYRKPIDWGAASPAVQSFRRI, the abundance fitness is -0.075 ± 0.042.
Still for that read-out and setting: as for ITIFEKGDFSGQMYETTEDCPSIMEQFHMREIHSCKVLEGVWIFYELPNYRGRQYLLDKKEYRKPIDWGAASPAVQSFRRI, the figure is -0.066 ± 0.087; as for IHIFEKGDFSGQMYETTEDCPSIMEQFHMREIHSCKVLEGVWIFYELPNYRGRQYLLDKKEYRKPIDWGAASPAVQSFRRI, 0.088 ± 0.086.
For IRIFEKGDFSGQMYETTEDCPSIMEQFHMREIHSCKVLEGVWIFYELPNYRGRQYLLDKKEYRKPIDWGAASPAVQSFRRI, the abundance fitness worked out at 0.027 ± 0.04.
Regarding IKIFEKGDFSGQMYETTEDCPSIMEQFHMREIHSCKVLEGVWIFYELPNYRGRQYLLDKKEYRKPIDWGAASPAVQSFRRI, the abundance fitness amounted to 0.022 ± 0.085.
Turning to IFIFEKGDFSGQMYETTEDCPSIMEQFHMREIHSCKVLEGVWIFYELPNYRGRQYLLDKKEYRKPIDWGAASPAVQSFRRI, the abundance fitness turned out to be 0.17 ± 0.16.
Regarding IVIFEKGDFSGQMYETTEDCPSIMEQFHMREIHSCKVLEGVWIFYELPNYRGRQYLLDKKEYRKPIDWGAASPAVQSFRRI, the abundance fitness is -0.041 ± 0.056.
Take GQIFEKGDFSGQMYETTEDCPSIMEQFHMREIHSCKVLEGVWIFYELPNYRGRQYLLDKKEYRKPIDWGAASPAVQSFRRI: the abundance fitness is -1.18 ± 0.16.
Consider NQIFEKGDFSGQMYETTEDCPSIMEQFHMREIHSCKVLEGVWIFYELPNYRGRQYLLDKKEYRKPIDWGAASPAVQSFRRI, for which the abundance fitness is -0.968 ± 0.37.
In the case of RQIFEKGDFSGQMYETTEDCPSIMEQFHMREIHSCKVLEGVWIFYELPNYRGRQYLLDKKEYRKPIDWGAASPAVQSFRRI, the abundance fitness was -1.07 ± 0.23.
On the same count and under the same terms, as for FQIFEKGDFSGQMYETTEDCPSIMEQFHMREIHSCKVLEGVWIFYELPNYRGRQYLLDKKEYRKPIDWGAASPAVQSFRRI, the figure is 0.011 ± 0.091; as for AQIFEKGDFSGQMYETTEDCPSIMEQFHMREIHSCKVLEGVWIFYELPNYRGRQYLLDKKEYRKPIDWGAASPAVQSFRRI, -0.239 ± 0.051; as for HQIFEKGDFSGQMYETTEDCPSIMEQFHMREIHSCKVLEGVWIFYELPNYRGRQYLLDKKEYRKPIDWGAASPAVQSFRRI, 0.005 ± 0.46.
The same measure, in the same setting: as for LQIFEKGDFSGQMYETTEDCPSIMEQFHMREIHSCKVLEGVWIFYELPNYRGRQYLLDKKEYRKPIDWGAASPAVQSFRRI, the figure is -0.154 ± 0.084; as for KQIFEKGDFSGQMYETTEDCPSIMEQFHMREIHSCKVLEGVWIFYELPNYRGRQYLLDKKEYRKPIDWGAASPAVQSFRRI, -0.732 ± 0.35.
For VQIFEKGDFSGQMYETTEDCPSIMEQFHMREIHSCKVLEGVWIFYELPNYRGRQYLLDKKEYRKPIDWGAASPAVQSFRRI, the abundance fitness turned out to be 0.05 ± 0.073.
Still for that read-out and setting: as for CQIFEKGDFSGQMYETTEDCPSIMEQFHMREIHSCKVLEGVWIFYELPNYRGRQYLLDKKEYRKPIDWGAASPAVQSFRRI, the figure is 0.104 ± 0.11; as for WQIFEKGDFSGQMYETTEDCPSIMEQFHMREIHSCKVLEGVWIFYELPNYRGRQYLLDKKEYRKPIDWGAASPAVQSFRRI, -1.16 ± 0.44.
In the case of TQIFEKGDFSGQMYETTEDCPSIMEQFHMREIHSCKVLEGVWIFYELPNYRGRQYLLDKKEYRKPIDWGAASPAVQSFRRI, the abundance fitness is -0.191 ± 0.13.
In the case of SQIFEKGDFSGQMYETTEDCPSIMEQFHMREIHSCKVLEGVWIFYELPNYRGRQYLLDKKEYRKPIDWGAASPAVQSFRRI, the abundance fitness was -0.973 ± 0.078.

Variants of B2 are the subject of the next data set. The data set is described as above. The following applies: Homo sapiens.
As to P48C, the abundance fitness worked out at 0.023 ± 0.12.
Same read-out and setting: next, P48T: -0.004 ± 0.092.
As to P48L, the abundance fitness is -0.564 ± 0.1.
Regarding P48W, the abundance fitness was -0.412 ± 0.12.
With P48M, the abundance fitness is -0.389 ± 0.09.
On the same count and under the same terms, next, P48V: -0.24 ± 0.075; P48F: 0.31 ± 0.12; P48A: -0.27 ± 0.085.
On to P48N, for which the abundance fitness is -0.106 ± 0.12.
Regarding P48E, the abundance fitness was determined as 0.177 ± 0.11.
As for P48D, the abundance fitness came to 0.212 ± 0.11.
On to P48Q, for which the abundance fitness was -0.09 ± 0.079.
Still for that read-out and setting: next, P48I: -0.312 ± 0.24; P48S: -0.025 ± 0.071.
P48H: the abundance fitness stood at 0.014 ± 0.13.
On to P48K, for which the abundance fitness was -0.419 ± 0.14.
As to P48Y, the abundance fitness is -0.149 ± 0.059.
As to T51E, the abundance fitness is -0.027 ± 0.063.
For the variant T51H, the abundance fitness was -0.228 ± 0.13.
For T51V, the abundance fitness was -0.084 ± 0.064.
Still for that read-out and setting: as for T51Y, the figure is -0.161 ± 0.097.
